In patent US20130089497A1 (Genentech, published 2013) one finds binding result and Kd data, which are given here for 1 molecule.

Experiment [1] addresses T1, gD tagged human FcRH1 on SVT2 cells (human, UniProt Q96LA6 17-429).
T1 construct: whole, on cells; also called huFcRH1; not shown: gD tag
T1 sequence (looked up): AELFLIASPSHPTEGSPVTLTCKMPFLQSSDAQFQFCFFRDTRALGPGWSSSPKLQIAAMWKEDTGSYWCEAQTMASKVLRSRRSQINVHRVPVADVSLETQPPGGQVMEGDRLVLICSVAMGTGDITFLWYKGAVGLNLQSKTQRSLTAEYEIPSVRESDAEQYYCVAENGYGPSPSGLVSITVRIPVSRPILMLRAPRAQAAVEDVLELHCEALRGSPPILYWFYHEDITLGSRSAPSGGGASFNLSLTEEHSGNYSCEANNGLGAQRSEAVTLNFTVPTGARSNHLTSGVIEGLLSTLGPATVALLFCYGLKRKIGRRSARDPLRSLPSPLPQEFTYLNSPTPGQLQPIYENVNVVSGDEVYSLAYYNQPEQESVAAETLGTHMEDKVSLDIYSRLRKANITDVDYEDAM
The experiment can be described thus: FACS, SVT2.MSCV.gD.FcRH1 cells, PE secondary antibody.

Experiment [2] has as its target T2, gD tagged human FcRH2 on SVT2 cells (human, UniProt Q96LA5 20-508).
T2 construct: whole, on cells; also called huFcRH2; not shown: gD tag; the construct for this FcRH is not described
T2 sequence (looked up): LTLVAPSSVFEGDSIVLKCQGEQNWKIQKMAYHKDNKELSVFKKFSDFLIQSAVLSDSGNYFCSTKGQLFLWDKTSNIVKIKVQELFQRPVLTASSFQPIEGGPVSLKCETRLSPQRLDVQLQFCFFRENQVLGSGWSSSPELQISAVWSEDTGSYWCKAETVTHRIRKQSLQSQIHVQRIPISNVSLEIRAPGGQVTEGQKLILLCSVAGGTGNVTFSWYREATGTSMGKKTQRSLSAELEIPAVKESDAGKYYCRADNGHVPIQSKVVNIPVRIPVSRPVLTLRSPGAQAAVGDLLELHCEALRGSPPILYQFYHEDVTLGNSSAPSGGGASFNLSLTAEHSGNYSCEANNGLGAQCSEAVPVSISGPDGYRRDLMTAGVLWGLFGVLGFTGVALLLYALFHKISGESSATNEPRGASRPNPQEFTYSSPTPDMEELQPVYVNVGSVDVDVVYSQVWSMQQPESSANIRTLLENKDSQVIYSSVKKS
As to the kind of experiment: FACS, SVT2.MSCV.gD.FcRH2 cells, PE secondary antibody.

For experiment [3], the target named is T3, human FcRH5 (FcRH5c/IRTA2c, PRO52387), soluble recombinant protein (human, UniProt Q96RD9 16-851).
T3 construct: also called Hu antigen; FcRH5 protein
T3 chain: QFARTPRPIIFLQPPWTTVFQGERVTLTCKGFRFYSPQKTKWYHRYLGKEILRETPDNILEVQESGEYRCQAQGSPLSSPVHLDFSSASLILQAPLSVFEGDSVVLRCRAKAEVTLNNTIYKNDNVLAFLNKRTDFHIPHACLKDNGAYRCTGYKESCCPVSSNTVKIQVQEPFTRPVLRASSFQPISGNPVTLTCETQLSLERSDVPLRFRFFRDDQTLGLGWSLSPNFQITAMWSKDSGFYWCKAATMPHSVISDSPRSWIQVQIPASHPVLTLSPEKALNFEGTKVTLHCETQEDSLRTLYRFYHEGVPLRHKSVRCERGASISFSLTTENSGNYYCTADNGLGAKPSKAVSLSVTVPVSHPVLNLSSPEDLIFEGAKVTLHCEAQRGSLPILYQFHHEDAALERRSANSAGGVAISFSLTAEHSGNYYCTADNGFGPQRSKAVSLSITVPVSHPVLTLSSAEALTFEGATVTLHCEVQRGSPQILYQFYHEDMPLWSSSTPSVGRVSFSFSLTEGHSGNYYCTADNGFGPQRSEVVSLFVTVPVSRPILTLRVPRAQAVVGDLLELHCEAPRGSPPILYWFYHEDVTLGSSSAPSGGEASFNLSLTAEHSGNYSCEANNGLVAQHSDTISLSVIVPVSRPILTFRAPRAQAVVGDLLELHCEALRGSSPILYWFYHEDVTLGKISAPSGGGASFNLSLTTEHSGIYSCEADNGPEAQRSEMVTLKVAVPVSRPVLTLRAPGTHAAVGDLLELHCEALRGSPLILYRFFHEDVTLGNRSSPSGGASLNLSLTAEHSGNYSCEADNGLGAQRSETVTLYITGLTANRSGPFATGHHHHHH
As to the kind of experiment: SPR (Biacore 2000): IgG captured on anti-murine IgG chip, FcRH injected, 25 C, 1:1 Langmuir model. A general note: In SPR one partner is held on a chip, and binding of the other changes the refractive index at the surface.

B1: murine monoclonal antibody anti-FcRH5-13G9 (antibody, V domains shown)
VH: EVQLVQSGPELKKPGETVKISCKASGYTFTNYGMNWVKQAPGKGLKWMGWVNTYTGEPTYTDDFKGRFAFSVETSASTVFLQINNLKNEDTATYFCARRSIPYYYAMDYWGQGTSLT
VL: DIVMTQSQKIMSTSVGDRVNVTCKASQNVGSNVAWYHQKPGQSPKALIYSASYRYSGVPDRFTGSGSGTDFTLTISNVQSEDLAEYFCQQYKTWTFGGGTKLEIKR
notes: Whole murine IgG from hybridoma; also called 13G9.1.1; mu13G9
For the molecule B1, the binding result in experiment [1] and in experiment [2] was “no binding (tested: 1.0 ug per about 10^6 cells (p-1120))” in each case. Also, the Kd – broadly, the constant that tells how readily two partners part at equilibrium – in experiment [3] worked out at 19 nM.
